Data on six molecules can be found in US20230272113A1.

The target of the test is human FLT3 on transfected CHO cells (human) (UniProt P36888). Description: FACS, scFv on CHO-human FLT3 cells pre-incubated with FLT3 ligand (competitor). Background: A flow cytometer gives signals particle by particle.

B1: FL-41 (scFv)
scFv: QVTLKESGPVLVKPTQTLTLTCTFSGFSLSNARMGVSWIRQPPGKCLEWLAHIFSNDEKSFSTSLKNRLTISKDTSKSQVVLTMTNMDPVDTATYYCARMVGYGSGWYAYFDYWGQGTQVTVSSGGGGSGGGGSGGGGSDIQMTQSPSSLSASVGDRVTITCRASQSISSYLNWYQQKPGKAPKLLIYAASSLQSGVPSRFSGSGSGTDFTLTISSLQPEDFATYYCLQHNSYPLTFGCGTKVEIK
As for B1, the median [+ligand]/median [w/o ligand]*100 was > 75%.

B2: FL-42 (scFv)
scFv: QVTLKESGPALVKPTETLTLTCTLSGFSLNNARMAVSWIRQPPGKCLEWLAHIFSNDEKSYSTSLKSRLTISKDTSKSQVVLTMTNMDPEDTATYYCARIVGYGTGWYGFFDYWGQGILVTVSSGGGGSGGGGSGGGGSDIQMTQSPSSLSASVGDRVTITCRASQGIRNDLAWYQQKPGKAPKRLIYAASSLQSGVPSRFSGSGSGTEFTLTISSLQPEDFATYYCLQHNSYPLTFGCGTKVEIK
With B2, the median [+ligand]/median [w/o ligand]*100 was > 75%.

B3: FL-37 (scFv)
scFv: QVTLKESGPVLVKPTETLTLTCTVSGFSLRNIKMGVSWIRQPPGKALEWLAHIFSNDEKSYSTSLKSRLTISKDTSKSQVVLTLTNMDPVDTATYFCARMPEYSSGWSGAFDIWGQGTMVTVSSGGGGSGGGGSGGGGSDIQMTQSPSSLSASVGDRVTITCRASQDISNYLAWYQQKPGKAPKRLIYAASSLQSGVPSRFSGSGSGTEFTLTISSLQPEDFATYYCLQHNSFPLTFGGGTKLEIK
On to B3, for which the median [+ligand]/median [w/o ligand]*100 is > 75%.

B4: FL-38 (scFv)
scFv: QVTLKESGPVLVKPTETLTLTCTVSGFSFRNARMGVSWIRQPPGKALEWLAHIFSNDEKSYSTSLKSRLTISKDTSKSQVVLTLTNMDPVDTATYFCARMPEYSSGWSGAFDIWGQGTLVTVSSGGGGSGGGGSGGGGSDIQMTQSPSSLSASVGDRVTITCRASQGIRNDLGWYQQKPGKAPKRLIYAASSLQSGVPSRFSGSGSGTEFTLTISSLQPEDFATYYCLQHNSYPLTFGGGTKLEIK
For B4, the median [+ligand]/median [w/o ligand]*100 was > 75%.

B5: FL-40 (scFv)
scFv: QVTLKESGPTLVKPTETLTLTCTVSGFSLSNARMGVSWIRQPPGKCLEWLANIFSNDEKSYSTSLKSRLTISKGTSKSQVVLTMTNVNPVDTGTYYCARIVGYGSGWYGYFDYWGQGTLVTVSSGGGGSGGGGSGGGGSDIQMTQSPSSLSASVGDRVTITCRASQDIRNDLGWYQQKPGKAPKRLIYATSIRQSGVPSRFTGSGSGTEFTLTISGLQPEDFATYFCLQHNSFPLTFGCGTKVEIK
For the molecule B5, the median [+ligand]/median [w/o ligand]*100 was > 75%.

B6: FL-39 (scFv)
scFv: QVTLKESGPTLVKPTETLTLTCTLSGFSLNNARMGVSWIRQPPGKCLEWLAHIFSNDEKSYSTSLKNRLTISKDSSKTQVVLTMTNVDPVDTATYYCARIVGYGSGWYGFFDYWGQGTLVTVSSGGGGSGGGGSGGGGSDIQMTQSPSSLSASVGDRVTITCRASQGIRNDLGWYQQKPGKAPKRLIYAASTLQSGVPSRFSGSGSGTEFTLTISSLQPEDFATYYCLQHNSYPLTFGCGTKVEIK
B6: the median [+ligand]/median [w/o ligand]*100 was > 75%.
